The values below come from patent US20020165156A1 (Biogen, published 2002).

The assay has as its target T1, soluble flag-hBAFF (amino acids L83-L285) (human, UniProt Q9Y275 83-285).
T1 construct: range 83-285; also called FLAG-tagged human BAFF; not shown: FLAG tag
Briefly: plate assay, 0.5 ug/ml FLAG-hBAFF on pJST535-transfected 293EBNA cells, anti-FLAG M2 and alkaline phosphatase / fast red. Here is the method:
Full-length human BAFF-R was generated from BJAB polyA+RNA using the SuperscriptII preamplification kit (Life Technologies) to generate the cDNA template and amplified by Pfu1 using primers complementary to the 5′ and 3′ coding sequences of BAFF-R. The PCR product was cloned into CH269, a derivative of pCEP4 (Invitrogen). The resultant clone was termed pJST535. Human embryonic kidney cells containing the EBNA-1 gene (293EBNA) were seeded into 6 well plates coated with fibronectin and transfected by lipofectamine (Life Technologies) with either pJST535 at various dilutions or CH269 as a background control. At 48 hrs post transfection, transfected cells were assayed for their ability to bind soluble flag-hBAFF(amino acids L83-L285) as follows. All incubations were at room temperature. Conditioned media was aspirated from the wells and the cells washed with BHA buffer (20 mM HEPES pH7.0, 0.5mg/ml BSA, 0.1% NaN3) and incubated with 0.5 ug/ml FLAG-hBAFF diluted in PBS containing 1 mM MgCl2, 1 mM CaCl2 and 0.1% NaN3. After an 1 hr. incubation, the BAFF solution was removed and the cells were washed with BHA. The cells were next incubated for 30 min. in a PBS solution containing 1 ug/ml of the anti-FLAG monoclonal antibody, M2 (Sigma). This solution was aspirated and the cells were washed with BHA. […]

T1 sequence (Q9Y275 83-285 limits assumed): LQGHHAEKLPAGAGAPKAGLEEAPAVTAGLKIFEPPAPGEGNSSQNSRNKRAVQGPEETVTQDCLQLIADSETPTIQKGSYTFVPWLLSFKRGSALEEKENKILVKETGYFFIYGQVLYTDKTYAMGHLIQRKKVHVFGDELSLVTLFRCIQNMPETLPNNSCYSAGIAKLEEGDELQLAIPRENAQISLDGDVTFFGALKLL

B1: full-length human BAFF-R (BCMA) expressed on 293EBNA cells transfected with pJST535 (receptor)
chain: MLQMAGQCSQNEYFDSLLHACIPCQLRCSSNTPPLTCQRYCNASVTNSVKGTNAILWTCLGLSLIISLAVFVLMFLLRKISSEPLKDEFKNTGSGLLGMANIDLEKSRTGDEIILPRGLEYTVEECTCEDCIKSKPKVDSDHCFPLPAMEEGATILVTTKTNDYCKSLPAALSATEIEKSISAR
On to B1, for which the binding result is given as “binds”.
